According to PMC9352680, “A comprehensive thermodynamic model for RNA binding by the Saccharomyces cerevisiae Pumilio protein PUF4”:

T1: PUF4 RNA-binding domain (Saccharomyces cerevisiae, UniProt P25339 537-888)
T1 sequence: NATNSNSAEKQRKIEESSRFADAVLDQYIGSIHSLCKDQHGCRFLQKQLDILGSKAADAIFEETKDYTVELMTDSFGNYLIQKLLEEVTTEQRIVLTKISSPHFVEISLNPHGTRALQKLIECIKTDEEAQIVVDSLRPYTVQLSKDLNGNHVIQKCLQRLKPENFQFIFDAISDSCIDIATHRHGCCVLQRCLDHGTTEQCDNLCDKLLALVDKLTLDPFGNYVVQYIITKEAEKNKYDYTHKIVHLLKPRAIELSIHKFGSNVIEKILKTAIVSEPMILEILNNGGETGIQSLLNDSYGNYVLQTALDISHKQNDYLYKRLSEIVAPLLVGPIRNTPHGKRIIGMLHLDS


Target: T1, PUF4 RNA-binding domain
Experiment: Mg; RNA-MaP; 20 mM Na-HEPES pH 7.4, 30 mM KOAc, 0.75 mM MgCl2, 0.1% Tween-20, 5% glycerol, 0.1 mg/mL BSA, 2 mM DTT; 25 C; 0.0125-409.6 nM protein
Conditions: tags: N-His6-TEV cleaved; C-SNAP kept, Cy3B-labelled; label: tethered on chip by stalled RNA polymerase

| Binder | Kd [nM] |
| --- | --- |
| Ic_S2_P4E.1_K4.1_C4.1_H4.1_A4.1_[A6T]_[T7A]_F4.1_[T8A]_[A9T]_T4.1 (ssRNA) RNA: UUUGAUUAAUAUGAUAUCGUUCUUUCUUGUAUUAAUUUCUUUCUCGAUAUCAUAUUAAUCUUU | 78.2 |
| UCUCUUUAUAUAUCAUCUCUU (ssRNA) [Ib_S1_P4E.1_K4.1_C4.1_H4.1_[G2A]_A4.1_F4.1_[T8C]_T4.1] | 1060 |
| UCUCUUUGUAUAUAUUCUCUU (ssRNA) [Ic_S1_P4E.1_K4.1_C4.1_H4.1_A4.1_F4.1_[T8A]_[A9T]_T4.1] | 3.56 |
| Ic_S2_P5E.1_K5.1_C5.1_H5.1_A5.1_[T6C]_[A7C]_F5.1_[T8G]_[T9C]_[A10T]_T5.1 (ssRNA) RNA: UUUGAUUAAUAUGAUAUCGUUCUUUCUUGUAUCCGCUUUCUUUCUCGAUAUCAUAUUAAUCUUU | 596 |
| Ic_S2_P5E.1_K5.1_C5.1_H5.1_A5.1_F5.1_[T8C]_[T9A]_[A10T]_T5.1 (ssRNA) RNA: UUUGAUUAAUAUGAUAUCGUUCUUUCUUGUAUUACAUUUCUUUCUCGAUAUCAUAUUAAUCUUU | 444 |
| Ic_S2_P5E.1_K5.1_C5.1_H5.1_A5.1_[T5C]_[T6C]_[A7G]_F5.1_[T8A]_[T9C]_[A10C]_T5.1 (ssRNA) RNA: UUUGAUUAAUAUGAUAUCGUUCUUUCUUGUACCGACCUUCUUUCUCGAUAUCAUAUUAAUCUUU | 1140 |
| Ic_S2_P5E.1_K5.1_C5.1_H5.1_A5.1_[T6C]_F5.1_[T8A]_[T9A]_[A10C]_T5.1 (ssRNA) RNA: UUUGAUUAAUAUGAUAUCGUUCUUUCUUGUAUCAAACUUCUUUCUCGAUAUCAUAUUAAUCUUU | 170 |
| Ic_S2_P5E.1_K5.1_C5.1_H5.1_A5.1_[T6C]_[A7G]_F5.1_[T8G]_T5.1 (ssRNA) RNA: UUUGAUUAAUAUGAUAUCGUUCUUUCUUGUAUCGGUAUUCUUUCUCGAUAUCAUAUUAAUCUUU | 37.7 |
| Ic_S2_P5E.1_K5.1_C5.1_H5.1_A5.1_[T5C]_[A7C]_F5.1_[T9C]_[A10G]_T5.1 (ssRNA) RNA: UUUGAUUAAUAUGAUAUCGUUCUUUCUUGUACUCUCGUUCUUUCUCGAUAUCAUAUUAAUCUUU | 152 |
| Ic_S2_P5E.1_K5.1_C5.1_H5.1_A5.1_[T5G]_F5.1_[T8A]_[T9A]_T5.1 (ssRNA) RNA: UUUGAUUAAUAUGAUAUCGUUCUUUCUUGUAGUAAAAUUCUUUCUCGAUAUCAUAUUAAUCUUU | 656 |
| Ic_S2_P5E.1_K5.1_C5.1_H5.1_A5.1_[T5G]_F5.1_[T8A]_[T9C]_[A10C]_T5.1 (ssRNA) RNA: UUUGAUUAAUAUGAUAUCGUUCUUUCUUGUAGUAACCUUCUUUCUCGAUAUCAUAUUAAUCUUU | 832 |
| Ic_S2_P5E.1_K5.1_C5.1_H5.1_A5.1_[T5C]_[T6A]_[A7T]_F5.1_[T9A]_T5.1 (ssRNA) RNA: UUUGAUUAAUAUGAUAUCGUUCUUUCUUGUACAUUAAUUCUUUCUCGAUAUCAUAUUAAUCUUU | 0.373 |
| Ic_S2_P5E.1_K5.1_C5.1_H5.1_A5.1_[T5C]_[T6A]_[A7G]_F5.1_[T8C]_[T9C]_T5.1 (ssRNA) RNA: UUUGAUUAAUAUGAUAUCGUUCUUUCUUGUACAGCCAUUCUUUCUCGAUAUCAUAUUAAUCUUU | 119 |
| Ic_S2_P5E.1_K5.1_C5.1_H5.1_A5.1_[T6A]_[A7T]_F5.1_[T8C]_[T9G]_[A10C]_T5.1 (ssRNA) RNA: UUUGAUUAAUAUGAUAUCGUUCUUUCUUGUAUAUCGCUUCUUUCUCGAUAUCAUAUUAAUCUUU | 21.9 |
| Ic_S2_P5E.1_K5.1_C5.1_H5.1_A5.1_[T5A]_[A7C]_F5.1_[T8C]_[T9C]_T5.1 (ssRNA) RNA: UUUGAUUAAUAUGAUAUCGUUCUUUCUUGUAAUCCCAUUCUUUCUCGAUAUCAUAUUAAUCUUU | 669 |
| Ic_S2_P5E.1_K5.1_C5.1_H5.1_A5.1_[T5C]_[T6G]_[A7T]_F5.1_[T8C]_[T9C]_[A10C]_T5.1 (ssRNA) RNA: UUUGAUUAAUAUGAUAUCGUUCUUUCUUGUACGUCCCUUCUUUCUCGAUAUCAUAUUAAUCUUU | 167 |
| Ic_S2_P5E.1_K5.1_C5.1_H5.1_A5.1_[A7C]_F5.1_[T8C]_[T9C]_[A10T]_T5.1 (ssRNA) RNA: UUUGAUUAAUAUGAUAUCGUUCUUUCUUGUAUUCCCUUUCUUUCUCGAUAUCAUAUUAAUCUUU | 142 |
| Ic_S2_P5E.1_K5.1_C5.1_H5.1_A5.1_[T5C]_[T6A]_[A7T]_F5.1_[T8G]_[T9G]_[A10T]_T5.1 (ssRNA) RNA: UUUGAUUAAUAUGAUAUCGUUCUUUCUUGUACAUGGUUUCUUUCUCGAUAUCAUAUUAAUCUUU | 45.8 |
| Ic_S2_P5E.1_K5.1_C5.1_H5.1_A5.1_[T5C]_[A7C]_F5.1_[T8A]_[T9G]_[A10C]_T5.1 (ssRNA) RNA: UUUGAUUAAUAUGAUAUCGUUCUUUCUUGUACUCAGCUUCUUUCUCGAUAUCAUAUUAAUCUUU | 818 |
| Ic_S2_P5E.1_K5.1_C5.1_H5.1_A5.1_[T6G]_[A7T]_F5.1_[T8C]_[T9A]_[A10C]_T5.1 (ssRNA) RNA: UUUGAUUAAUAUGAUAUCGUUCUUUCUUGUAUGUCACUUCUUUCUCGAUAUCAUAUUAAUCUUU | 293 |
| Ic_S2_P5E.1_K5.1_C5.1_H5.1_A5.1_[T5A]_[A7C]_F5.1_[T8A]_[T9C]_[A10C]_T5.1 (ssRNA) RNA: UUUGAUUAAUAUGAUAUCGUUCUUUCUUGUAAUCACCUUCUUUCUCGAUAUCAUAUUAAUCUUU | 545 |
| Ic_S2_P5E.1_K5.1_C5.1_H5.1_A5.1_[T5C]_F5.1_[T8A]_[T9A]_T5.1 (ssRNA) RNA: UUUGAUUAAUAUGAUAUCGUUCUUUCUUGUACUAAAAUUCUUUCUCGAUAUCAUAUUAAUCUUU | 55.1 |
| UCUCUUUAUAUAUGAUCUCUU (ssRNA) [Ib_S1_P4E.1_K4.1_C4.1_H4.1_[G2A]_A4.1_F4.1_[T8G]_T4.1] | > 2300 |
